Measurements from publication PMC9593262 (iScience, 2022).
Each block holds one binder with its values, some of them ahead of it. No end group written: not given here. *: point of attachment. Biotin = O=C1N[C@H]2[C@H](CS[C@H]2CCCCC(=O)*)N1

Assays:
[1] = target: T1, Recombinant nucleolin protein (murine, residues 309–644) (mouse, UniProt P09405 309-644); experiment: plate competition assay read by fluorescence of PE-labelled streptavidin
[2] = target: T1, Recombinant nucleolin protein (murine, …); experiment: plate binding assay read by fluorescence of PE-labelled streptavidin
[3] = target: T2, Recombinant mouse NRP-1 protein (mouse, UniProt P97333 22-856); experiment: as above
T2 sequence (looked up): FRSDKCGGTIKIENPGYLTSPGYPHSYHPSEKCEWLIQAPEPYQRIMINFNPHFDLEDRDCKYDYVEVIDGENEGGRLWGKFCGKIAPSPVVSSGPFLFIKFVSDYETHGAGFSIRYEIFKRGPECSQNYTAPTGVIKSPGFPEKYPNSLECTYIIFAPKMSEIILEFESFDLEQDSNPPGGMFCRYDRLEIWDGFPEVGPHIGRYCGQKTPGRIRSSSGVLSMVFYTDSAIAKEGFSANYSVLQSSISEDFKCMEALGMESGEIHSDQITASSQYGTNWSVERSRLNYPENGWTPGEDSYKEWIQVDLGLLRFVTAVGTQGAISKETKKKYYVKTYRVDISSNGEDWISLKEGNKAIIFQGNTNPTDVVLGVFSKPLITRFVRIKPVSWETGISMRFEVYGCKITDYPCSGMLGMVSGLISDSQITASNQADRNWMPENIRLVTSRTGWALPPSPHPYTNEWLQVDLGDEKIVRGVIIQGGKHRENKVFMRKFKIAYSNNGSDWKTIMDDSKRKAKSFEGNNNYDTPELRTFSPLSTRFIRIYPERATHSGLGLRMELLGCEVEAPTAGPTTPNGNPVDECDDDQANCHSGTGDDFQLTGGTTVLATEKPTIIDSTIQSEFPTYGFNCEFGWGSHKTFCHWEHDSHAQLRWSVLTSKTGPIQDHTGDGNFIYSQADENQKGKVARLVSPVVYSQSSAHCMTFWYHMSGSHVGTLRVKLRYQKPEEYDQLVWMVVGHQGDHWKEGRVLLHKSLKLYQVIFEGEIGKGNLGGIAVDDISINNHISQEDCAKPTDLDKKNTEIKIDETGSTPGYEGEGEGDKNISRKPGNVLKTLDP

T1 sequence (P09405 309-644): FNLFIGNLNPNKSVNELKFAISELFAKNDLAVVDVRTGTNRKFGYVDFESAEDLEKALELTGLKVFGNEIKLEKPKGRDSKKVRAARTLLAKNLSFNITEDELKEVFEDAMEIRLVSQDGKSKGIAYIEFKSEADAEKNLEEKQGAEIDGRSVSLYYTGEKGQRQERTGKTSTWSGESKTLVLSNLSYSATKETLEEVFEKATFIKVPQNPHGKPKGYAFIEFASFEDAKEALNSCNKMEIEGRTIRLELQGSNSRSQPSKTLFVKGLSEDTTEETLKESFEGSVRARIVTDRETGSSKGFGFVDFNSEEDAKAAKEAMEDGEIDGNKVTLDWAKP

binding result [1]: binds
Binder: VSYKAIRVSYKAIRVSYKAIR [Dp1×3 (unlabelled)]

binding result [2]: binds
Binder: Biotin-VSYKAIRVSYKAIRVSYKAIR [biotin-labeled Dp1×3]

binding result [3]: binds
Binder: Biotin-VSYKAIR [biotin-labeled DC-targeting peptide Dp1]
